Experimental data: patent US7585836B2, “Bi-lateral local renal delivery for treating congestive heart failure and for BNP therapy” (priority 2004, dated 2009)
Several values for one entry are separate records, joined by “and”; a condition that tells them apart may be missing. Equal values may be shown once.

Legend:
[1] = Pharmacokinetics: serum BNP levels after intra-renal (IR) versus intravenous (IV) BNP administration in the canine model; type: in vivo; details: for difference between serum BNP levels with IR versus IV infusion at comparable time points: higher with IV
Description: (§1) IR versus IV administration of human recombinant BNP (Natrecor® agent, Scios, Inc., Johnson & Johnson) was compared in the canine model (two animals). IR infusion was achieved using the FlowMedica Benephit™ Infusion System (FlowMedica, Inc.). IV and IR administration was performed in each animal sequentially, and the administration periods were separated by five days to allow for washout and re-acclimation of the animals. IV administration was conducted on the first day in both animals. Other than the route of BNP administration, all other parameters were identical between the IV and IR administration days in both dogs.
(§2) Canine #1 received a 2 mcg/kg/min bolus of BNP followed immediately by a 0.15 mcg/kg/min BNP infusion for 90 minutes, followed by a 2-hour washout period. Then vasoconstriction was induced via phenylepherine until mean arterial pressure (MAP) was increased by approximately 30% (approximately 1 hour), and then BNP was again administered at 0.15 mcg/kg/min for 90 minutes.
Canine #2 received a 2 mcg/kg/min BNP bolus followed immediately by a 4-hour continuous infusion of BNP at 0.15 mcg/kg/min.
(§3) Key endpoints included serum levels of BNP (pharmacokinetics, both animals) following IR and IV BNP administration, and blood pressure response in response IR and IV BNP administration (Canine #1 only).

canine model = assay: Blood pressure (mean arterial pressure) response to IR and IV BNP during phenylepherine-induced vasoconstriction; type: in vivo; details: Canine #1, constricted vascular state induced by phenylepherine
Description: as §1, §2, §3

Substance: nesiritide [BNP]
- difference between serum BNP levels with IR versus IV infusion at comparable time points ([1]; Canine #1, 2 mcg/kg/min bolus then 0.15 mcg/kg/min infusion): 75% and 66%
- difference between serum BNP levels with IR versus IV infusion at comparable time points ([1]; Canine #2, 2 mcg/kg/min bolus then 4-hour infusion at 0.15 mcg/kg/min): 61% and 69%
- lower systemic levels with IR than with IV administration of the same dose ([1]; both canines, same dose): 61-75%
- average reduction of steady-state plasma BNP levels, IR versus systemic (IV) administration ([1]; two dogs, given dose IR versus IV): 63%
- maximum reduction in mean arterial pressure (MAP) (canine model; IR BNP 0.15 mcg/kg/min): 15%
- maximum reduction in mean arterial pressure (MAP) (canine model; IV BNP 0.15 mcg/kg/min): 50%
